In US20200306373A1 (Hoffmann-La Roche, published 2020):

How the values were obtained:
[1] = target: T1, human ICOS (human, UniProt Q9Y6W8 21-199); assay: cell-based or functional assay
T1 sequence: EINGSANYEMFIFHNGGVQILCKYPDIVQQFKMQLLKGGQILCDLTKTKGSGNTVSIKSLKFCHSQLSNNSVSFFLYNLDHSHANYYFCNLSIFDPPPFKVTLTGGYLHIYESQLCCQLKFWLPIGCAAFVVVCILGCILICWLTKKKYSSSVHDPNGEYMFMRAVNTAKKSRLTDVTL

[2] = target: T2, human fibroblast activating protein (huFAP) (human, UniProt Q12884 1-760); assay: flow cytometry on NIH/3T3-huFAP clone 19 cells
T2 construct: Expressed on NIH/3T3-huFAP clone 19 cells; also called human FAP; hFAP
Experimental: (§1) This cell line was generated by the transfection of the mouse embryonic fibroblast NIH/3T3 cell line (ATCC CRL-1658) with the expression vector pETR4921 to express huFAP under […] Puromycin selection.
(§2) The staining was fixed for 20 min at 4° C. in the dark, using 75 μl of 1% PFA in FACS buffer per well. Fluorescence was analyzed by FACS using a FACS Fortessa (Software FACS Diva). Binding curves were obtained using GraphPadPrism6 and are shown in FIGS. 6A-6C and 7A-7B, respectively.

[3] = target: T1, human ICOS; assay: flow cytometry, activated human PBMCs, ICOS on CD4+ T cells
[4] = target: T1, human ICOS; assay: flow cytometry, activated human PBMCs, ICOS on CD8+ T cells
[5] = target: T2, human fibroblast activating protein …; assay: flow cytometry on NIH/3T3-huFAP clone 19 cells (human FAP), PE anti-human secondary, median fluorescence intensity
Experimental: as §1, §2

[6] = target: T3, human CEA (human, UniProt P06731 35-685); assay: flow cytometry on MKN45 cells (human CEA), Alexa Fluor 647 anti-human Fc secondary, frequency of A647+ cells
T3 construct: Endogenous CEA on MKN45 human gastric adenocarcinoma cells; also called Carcinoembryonic antigen; CEACAM5
T3 sequence: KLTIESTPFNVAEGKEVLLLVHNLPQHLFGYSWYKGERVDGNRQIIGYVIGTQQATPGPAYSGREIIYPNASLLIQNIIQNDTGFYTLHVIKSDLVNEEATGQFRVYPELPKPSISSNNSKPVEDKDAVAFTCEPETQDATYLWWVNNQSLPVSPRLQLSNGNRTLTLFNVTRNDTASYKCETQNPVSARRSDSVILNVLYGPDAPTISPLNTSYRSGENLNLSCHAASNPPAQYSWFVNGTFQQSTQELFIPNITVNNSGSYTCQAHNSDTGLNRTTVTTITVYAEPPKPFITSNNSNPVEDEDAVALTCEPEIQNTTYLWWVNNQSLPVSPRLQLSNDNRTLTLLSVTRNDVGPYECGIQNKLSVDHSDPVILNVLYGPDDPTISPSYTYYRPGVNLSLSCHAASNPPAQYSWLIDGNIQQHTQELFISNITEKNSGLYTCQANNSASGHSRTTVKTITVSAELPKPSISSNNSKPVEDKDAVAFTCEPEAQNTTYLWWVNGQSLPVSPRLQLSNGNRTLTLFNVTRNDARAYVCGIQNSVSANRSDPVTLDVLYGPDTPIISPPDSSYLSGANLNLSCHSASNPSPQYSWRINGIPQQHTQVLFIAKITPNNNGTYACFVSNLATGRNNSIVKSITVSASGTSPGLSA
Experimental: Briefly, human PBMCs, isolated from either Buffy Coats or fresh blood from healthy human donors (as described in Example 5.1) were incubated in a humidified incubator at 37° C. for 48 hours in RPMI1640 medium including […] PHA-L (Roche, #11249738001) and 100 units/ml recombinant human IL-2 (“Proleukin”, Novartis) at a cell density of 1 million cells per ml.
At the day of the assay, pre-activated PBMCs cells were harvested, washed with PBS, and 0.2 million cells in FACS buffer (PBS with 0.1% BSA) were plated per well of a 96-round bottom-well plate. Likewise, adherent MKN45 tumor cells were detached using trypsin (Gibco, 25300-054), washed and 0.15 million cells were transferred into the 96-round bottom well-plate. […] Cells were washed with FACS buffer and the staining was fixed for 20 min at 4° C. in the dark, using 75 µl of 1% PFA in FACS buffer per well. Cells were washed again two times with FACS Buffer and re-suspended in FACS Buffer for analysis.
Fluorescence was analyzed by FACS using a FACS Fortessa (Software FACS Diva). Binding curves and EC₅₀ values were obtained using GraphPadPrism6.

[7] = target: T4, murine ICOS Fc(kih) Avi tag (murine, Avi tag, captured on a streptavidin chip); assay: SPR, Biacore T200, 25 C, murine ICOS Fc(kih) on streptavidin chip, antibody injected 1000-31.25 nM, 1:1 Langmuir
T4 construct: also called recombinant murine ICOS Fc(kih)
T4 sequence (chain, as listed by the source limits assumed, chain 1 of 2): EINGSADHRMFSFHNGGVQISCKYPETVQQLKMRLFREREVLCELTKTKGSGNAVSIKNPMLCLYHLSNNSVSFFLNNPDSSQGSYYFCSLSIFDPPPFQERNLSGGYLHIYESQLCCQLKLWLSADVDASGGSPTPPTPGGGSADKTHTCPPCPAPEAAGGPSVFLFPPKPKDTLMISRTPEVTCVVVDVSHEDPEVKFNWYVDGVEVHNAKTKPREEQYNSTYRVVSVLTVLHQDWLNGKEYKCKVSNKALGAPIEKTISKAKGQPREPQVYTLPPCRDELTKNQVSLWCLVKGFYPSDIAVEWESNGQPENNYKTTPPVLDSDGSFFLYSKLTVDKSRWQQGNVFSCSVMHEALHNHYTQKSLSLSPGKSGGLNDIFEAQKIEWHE
T4 sequence (chain, as listed by the source limits assumed, chain 2 of 2): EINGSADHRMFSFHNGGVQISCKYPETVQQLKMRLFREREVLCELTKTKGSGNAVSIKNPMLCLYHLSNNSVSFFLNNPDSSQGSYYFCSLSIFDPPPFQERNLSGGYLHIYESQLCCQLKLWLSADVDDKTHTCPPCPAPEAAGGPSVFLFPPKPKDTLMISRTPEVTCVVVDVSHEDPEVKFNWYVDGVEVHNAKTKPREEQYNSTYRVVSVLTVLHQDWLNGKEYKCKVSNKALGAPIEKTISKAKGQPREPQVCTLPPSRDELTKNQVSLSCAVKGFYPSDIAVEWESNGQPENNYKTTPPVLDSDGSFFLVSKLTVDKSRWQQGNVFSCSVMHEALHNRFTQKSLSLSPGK
Experimental: Surface plasmon resonance experiments were performed on a Biacore T200 at 25° C. with HBS-EP as running buffer (0.01 M HEPES pH 7.4, 0.15 M NaCl, 0.005% (v/v) Surfactant P20 (GE Healthcare)).
The immobilization level was approximately 600 RU. […] The dissociation phase was monitored for 500 s and triggered by switching from the sample solution to HBS-EP. The chip surface was regenerated after every cycle using one injection of 10 mM Glycine pH 3.0 for 60 s.
The affinity constants were derived from the kinetic rate constants by fitting to a 1:1 Langmuir binding using the BIAeval software (GE Healthcare).

B1: FAP-ICOS_1+1, huIgG1 P329G LALA, monovalent ICOS (JMAb136), monovalent FAP (4B9) (bispecific antibody)
heavy 1: not shown
light 1: DIQMTQSPSSVSASVGDRVTITCRASQGISRLLAWYQQKPGKAPKLLIYVASSLQSGVPSRFSGSGSGTDFTLTISSLQPEDFATYYCQQANSFPWTFGQGTKVEIKRTVAAPSVFIFPPSDRKLKSGTASVVCLLNNFYPREAKVQWKVDNALQSGNSQESVTEQDSKDSTYSLSSTLTLSKADYEKHKVYACEVTHQGLSSPVTKSFNRGEC
heavy 2: EIVLTQSPGTLSLSPGERATLSCRASQSVTSSYLAWYQQKPGQAPRLLINVGSRRATGIPDRFSGSGSGTDFTLTISRLEPEDFAVYYCQQGIMLPPTFGQGTKVEIKSSASTKGPSVFPLAPSSKSTSGGTAALGCLVKDYFPEPVTVSWNSGALTSGVHTFPAVLQSSGLYSLSSVVTVPSSSLGTQTYICNVNHKPSNTKVDKKVEPKSCDKTHTCPPCPAPEAAGGPSVFLFPPKPKDTLMISRTPEVTCVVVDVSHEDPEVKFNWYVDGVEVHNAKTKPREEQYNSTYRVVSVLTVLHQDWLNGKEYKCKVSNKALGAPIEKTISKAKGQPREPQVCTLPPSRDELTKNQVSLSCAVKGFYPSDIAVEWESNGQPENNYKTTPPVLDSDGSFFLVSKLTVDKSRWQQGNVFSCSVMHEALHNHYTQKSLSLSP
light 2: EVQLLESGGGLVQPGGSLRLSCAASGFTFSSYAMSWVRQAPGKGLEWVSAIIGSGASTYYADSVKGRFTISRDNSKNTLYLQMNSLRAEDTAVYYCAKGWFGGFNYWGQGTLVTVSSASVAAPSVFIFPPSDEQLKSGTASVVCLLNNFYPREAKVQWKVDNALQSGNSQESVTEQDSKDSTYSLSSTLTLSKADYEKHKVYACEVTHQGLSSPVTKSFNRGEC
notes: also called ICOS-FAP 1+1; ICOS(JMab136)-FAP(4B9) 1 + 1
Fold increase vs TCB only at 200 pM CEA-ICOS (% CD69^+CD4^+), Donor 1 (D1) [1]: 2.5 fold | Fold increase vs TCB only at 200 pM CEA-ICOS (% CD69^+CD4^+), Donor 2 (D2) [1]: 1.5 fold | Fold increase vs TCB only at 1000 pM CEA-ICOS (% CD69^+CD4^+), Donor 1 (D1) [1]: 2.65 fold | Fold increase vs TCB only at 1000 pM CEA-ICOS (% CD69^+CD4^+), Donor 2 (D2) [1]: 1.68 fold | EC50 [2]: 2.98 nM | EC50 [3]: 34.9 nM | EC50 [4]: 50.7 nM | EC50 (read off the curve) [5]: ~3 nM

B2: ICOS(JMab136)-CEA(MEDI-565) 1+1, CEA-ICOS_1+1, huIgG1 P329G LALA, monovalent ICOS (JMAb136), monovalent CEA (MEDI-565) (bispecific antibody)
heavy 1: not shown
light 1: B1 light 1
heavy 2: not shown
light 2: EVQLVESGGGLVQPGRSLRLSCAASGFTVSSYWMHWVRQAPGKGLEWVGFIRNKANGGTTEYAASVKGRFTISRDDSKNTLYLQMNSLRAEDTAVYYCARDRGLRFYFDYWGQGTTVTVSSASVAAPSVFIFPPSDEQLKSGTASVVCLLNNFYPREAKVQWKVDNALQSGNSQESVTEQDSKDSTYSLSSTLTLSKADYEKHKVYACEVTHQGLSSPVTKSFNRGEC
notes: Human IgG1 P329G LALA, knob-into-hole; also called CEA(MEDI565)-ICOS(JMAb136)_1 + 1
Fold increase vs TCB only at 200 pM CEA-ICOS (% CD69^+CD4^+), Donor 1 (D1) [1]: 4.99 fold | Fold increase vs TCB only at 200 pM CEA-ICOS (% CD69^+CD4^+), Donor 2 (D2) [1]: 2.91 fold | Fold increase vs TCB only at 1000 pM CEA-ICOS (% CD69^+CD4^+), Donor 1 (D1) [1]: 5.95 fold | Fold increase vs TCB only at 1000 pM CEA-ICOS (% CD69^+CD4^+), Donor 2 (D2) [1]: 2.47 fold | EC50 (read off the curve) [6]: ~0.05 nM

B3: DP47-ICOS_2+1, huIgG1 P329G LALA, bivalent ICOS (JMAb136), monovalent DP47 (bispecific antibody)
heavy 1: not shown
heavy 2: not shown
light: B1 light 1
notes: Untargeted control, human IgG1 P329G LALA, bivalent for ICOS; also called ICOS-DP47 control molecule; untargeted DP47-ICOS
EC50 [3]: 9.99 nM | EC50 [4]: 12.4 nM | binding result [5]: no binding (tested: about 120000 pM)

B4: FAP-ICOS_2+1, huIgG1 P329G LALA, bivalent ICOS (JMAb136), monovalent FAP (4B9) (bispecific antibody)
heavy 1: not shown
heavy 2: not shown
light: B1 light 1
notes: Human IgG1 P329G LALA, knob-into-hole; also called ICOS-FAP 2+1; ICOS(JMab136)-FAP(4B9) 2 + 1
Fold increase vs TCB only at 200 pM CEA-ICOS (% CD69^+CD4^+), Donor 1 (D1) [1]: 2.66 fold | Fold increase vs TCB only at 200 pM CEA-ICOS (% CD69^+CD4^+), Donor 2 (D2) [1]: 1.38 fold | Fold increase vs TCB only at 1000 pM CEA-ICOS (% CD69^+CD4^+), Donor 1 (D1) [1]: 2.66 fold | Fold increase vs TCB only at 1000 pM CEA-ICOS (% CD69^+CD4^+), Donor 2 (D2) [1]: 1.96 fold | EC50 [2]: 5.19 nM | EC50 [3]: 10.7 nM | EC50 [4]: 14.4 nM

B5: FAP-ICOS_1+1_HT, huIgG1 P329G LALA, monovalent ICOS (JMAb136), monovalent FAP (4B9) c-terminal fused of the heavy chain C region (bispecific antibody)
heavy 1: not shown
heavy 2: DKTHTCPPCPAPEAAGGPSVFLFPPKPKDTLMISRTPEVTCVVVDVSHEDPEVKFNWYVDGVEVHNAKTKPREEQYNSTYRVVSVLTVLHQDWLNGKEYKCKVSNKALGAPIEKTISKAKGQPREPQVCTLPPSRDELTKNQVSLSCAVKGFYPSDIAVEWESNGQPENNYKTTPPVLDSDGSFFLVSKLTVDKSRWQQGNVFSCSVMHEALHNHYTQKSLSLSPGGGGGSGGGGSGGGGSGGGGSEIVLTQSPGTLSLSPGERATLSCRASQSVTSSYLAWYQQKPGQAPRLLINVGSRRATGIPDRFSGSGSGTDFTLTISRLEPEDFAVYYCQQGIMLPPTFGQGTKVEIK
light: B1 light 1
notes: Human IgG1 P329G LALA, knob-into-hole; 4B9 VH and VL fused to the C-termini of the two Fc chains; also called ICOS-FAP 1+1 HT; 1+1 head-to-tail
EC50 [2]: 6.73 nM | EC50 [3]: 42.6 nM | EC50 [4]: 56.4 nM

B6: ICOS(JMab136)-CEA(MEDI-565) 2+1, CEA-ICOS_2+1 huIgG1 P329G LALA, bivalent ICOS (JMAb136), monovalent CEA (MEDI-565) (bispecific antibody)
heavy 1: not shown
heavy 2: not shown
light: B1 light 1
notes: Human IgG1 P329G LALA, knob-into-hole; also called CEA(MEDI565)-ICOS(JMAb136)_2 + 1
Fold increase vs TCB only at 200 pM CEA-ICOS (% CD69^+CD4^+), Donor 1 (D1) [1]: 5.17 fold | Fold increase vs TCB only at 200 pM CEA-ICOS (% CD69^+CD4^+), Donor 2 (D2) [1]: 2.86 fold | Fold increase vs TCB only at 1000 pM CEA-ICOS (% CD69^+CD4^+), Donor 1 (D1) [1]: 5.52 fold | Fold increase vs TCB only at 1000 pM CEA-ICOS (% CD69^+CD4^+), Donor 2 (D2) [1]: 1.99 fold | EC50 (read off the curve) [6]: ~0.5 nM

B7: DP47-ICOS_1+1, huIgG1 P329G LALA, monovalent ICOS (JMAb136), monovalent DP47 (bispecific antibody)
heavy 1: not shown
light 1: B1 light 1
heavy 2: not shown
light 2: not shown
notes: Untargeted control, human IgG1 P329G LALA; also called ICOS-DP47 control molecule; untargeted DP47-ICOS
EC50 [3]: 19.9 nM | EC50 [4]: 25.7 nM | binding result [5]: no binding (tested: about 120000 pM)

B8: anti-ICOS 16E09 IgG1 P329G LALA antibody (antibody, V domains shown)
VH: EVQLVQSGAEVKKPGESLKISCKGSGYSFTSYWIGWVRQMPGKGLEWMGIIYPGDSDTRYSPSFQGQVTISADKSISTAYLQWSSLKASDTAMYYCARSSGPYGLYLDYWGQGTLVTVSS
VL: not shown
notes: also called phage-derived ICOS-specific antibody 16E09
Kd [7]: 180 nM | koff [7]: 0.0192 s⁻¹ | kon [7]: 144000 M⁻¹ s⁻¹
